The text below walks through data of patent publication US20230346948A1, “Lipid conjugated peptide inhibitors of PICK1” (University of Copenhagen, priority 2020, published 2023).

The target of one data set is T1, purified PICK1 (Rattus norvegicus, UniProt Q9EP80).
T1 construct: Full length rat PICK1 (pET41) was prepared as described earlier; inferred from pET41 vector and Glutathione-Sepharose capture) (N, cleaved yes); made in house; host or cells: E. coli BL21-DE3-pLysS
The data set is described as follows: Fluorescence polarization competition, substituted peptide libraries. Conditions: relative to HWLKV; tracer 5FAM-HWLKV 20 nM. The class given is binding. As for the experimental part:
Full length rat PICK1 (pET41) was prepared as described earlier (Madsen et al., 2005). In brief, PICK1 was expressed in BL21-DE3-pLysS cells and grown at 37° C., induced at OD600=0.6 with 1 mM Isopropyl β-D-1-thiogalactopyranoside (IPTG) and grown 16 hrs at 20° C. Cultures were harvested and re-suspended in 50 mM trisaminomethane (Tris), 125 mM NaCl, 2 mM Dithiothreitol (DTT, Sigma), 1% Triton X-100 (Sigma), 20 μg/mL DNAse 1 and ½ a tablet cOmplete protease inhibitor cocktail (Roche) pr. 1 L culture. The re-suspended pellets were frozen at −80° C. for later purification. The lysate was cleared by centrifugation (36,000×g for 30 min at 4° C.), and the supernatant was incubated with Glutathione-Sepharose 4B beads (GE Healthcare) for 2 hrs at 4° C. under gentle rotation and then centrifuged at 4,000×g for 5 min. The supernatant was removed and the beads were washed twice in 35 mL 50 mM Tris, 125 mM NaCl, 2 mM DTT and 0.01% Triton-X100. The beads were transferred to PD-10 Bio-Spine Chromatography columns (Bio-Rad) and washed with an additional 3 column volumes. Each column was sealed and 0.075 U/μL, Novagen® was added for cleavage 0/N at 4° C. under gentle rotation. PICK1 was eluted on ice and absorption at 280 nm was measured on TECAN plate reader or on a NanoDrop3000. The protein concentration was determined using lambert beers law (A=εcl), εA280PICK1=32320 (cm*mol/L)^−1.
The plate was incubated 20 min on ice in a black half-area Corning Black non-binding surface 96-well plate and the fluorescence polarization was measured directly on a Omega POLARstar plate reader using excitation filter at 488-nm and long pass emission filter at 535-nm.
Background: Polarisation of emitted light reports the rotation of a fluorescent probe.

Data set [1] in a line: Plasma exposure of biotinylated peptide after s.c. injection, ELISA. The class given is in vivo, mice. Conditions: male, C57bl6N, mouse, sc, s.c. 10 μmol/kg, read-out: time of peak plasma concentration (converted). As for the experimental part:
Blood sample collection. Biotinylated TAT-di-PEG4-DATC5 (biot-TPD5; 34 mg/kg=[…]) or Biotinylated myr-di-PEG4-DATC5 (biot-mPD5; […]) diluted in 0.9% NaCl was injected s.c in 8 weeks old male C57bl6N mice (18 mice in total) once, and blood samples were collected after 15 min, 30 min, 1 h, 2 h and 6 h (blood samples from 6 mice per timepoint) using Aprotinine-containing BD Vacutainer®K3EDTA tubes (BD Diagnostics). The blood samples were centrifuged at 3500 RPM for 15 min at 4° C. and the plasma was collected in new tubes and freezed down at −20° C.
ELISA. A 96 well NUNC IMMOBILIZER (Cat. No. 436006) plate was coated with 15 μg/mL […] (Sigma-Aldrich, Product no. A8549) diluted in 100 mM sodium carbonate buffer (pH 9.6) and incubated for 2 h at room temperature on shaker. After incubation the plate was washed with PBS-T (1× phosphate buffered saline with 0.1% TWEEN® 20 (Sigma-Aldrich)) 3×, 1 washing step overnight at room temperature on shaker. […] The plate was read at 450 nm (and 570 nm) on a Wallac VICTOR2 1420 Multilabel Counter from PerkinElmer (Hvidovre, Denmark). The measured absorbance was calibrated to a standard curve generated from standard dilutions of biot-TPD5.

Data set [2] concerns diabetic neuropathy (STZ model). The note with it: 5MPK, at +2 h. As for the experimental part: Diabetic neuropathy (STZ) model. Diabetes is induced by a single IP injection of […]. Streptozocin solution (100 μl/10 g, Sigma-aldrich S0130, batch #WXBB7152V). Glycemia is tested before, and 7 days after injection.
The mechanical threshold response of the operated mice was measured with calibrated von Frey filaments (“up/down” method) and the 50% threshold (g) was calculated. The experimenter was blinded to mice treatment. […] Compounds were diluted in PBS (vehicle) and administered s.c. at 10 μL/g, in doses as indicated (gabapentine, 5MPK). Statistical analysis was performed using GraphPad Prism 6.0.

T1 sequence (Q9EP80 whole entry): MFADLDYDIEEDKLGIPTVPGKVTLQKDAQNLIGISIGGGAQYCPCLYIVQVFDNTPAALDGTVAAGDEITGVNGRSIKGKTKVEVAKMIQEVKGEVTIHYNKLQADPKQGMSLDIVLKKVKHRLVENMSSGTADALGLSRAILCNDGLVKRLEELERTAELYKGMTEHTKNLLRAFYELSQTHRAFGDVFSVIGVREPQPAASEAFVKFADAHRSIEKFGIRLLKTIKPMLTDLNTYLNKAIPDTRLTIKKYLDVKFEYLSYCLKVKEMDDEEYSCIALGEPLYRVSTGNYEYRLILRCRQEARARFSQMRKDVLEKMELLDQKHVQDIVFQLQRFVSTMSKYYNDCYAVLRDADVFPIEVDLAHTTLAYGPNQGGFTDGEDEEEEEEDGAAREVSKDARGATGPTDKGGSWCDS

“IRV [3-mer peptide of combinatorial library]”: the “fold affinity change, combinatorial peptide library” value (shortened to “fold affinity change”) with purified PICK1 is “optimal 3-mer sequences”.
In the case of “YIIV (DAT-C5 variant) [4-mer peptide of combinatorial library]”, in the data set with purified PICK1, the “fold affinity change” value is given as “optimal 4-mer sequences”.
On the same count and under the same terms, next, “EIRV (DAT-C5 variant) [4-mer peptide of combinatorial library]”: “optimal 4-mer sequences”.
For `CC(C)C[C@H](NC(=O)[C@H](Cc1c[nH]c2ccccc12)NC(=O)[C@H](Cc1c[nH]cn1)NC(=O)CCOCCOCCN(CCOCCOCCC(=O)N[C@@H](Cc1c[nH]cn1)C(=O)N[C@@H](Cc1c[nH]c2ccccc12)C(=O)N[C@@H](CC(C)C)C(=O)N[C@@H](CCCCN)C(=O)N[C@H](C(=O)O)C(C)C)C(=O)[C@H](CCCNC(=N)N)NC(=O)[C@H](CCCNC(=N)N)NC(=O)[C@H](CCCNC(=N)N)NC(=O)[C@H](CCC(N)=O)NC(=O)[C@H](CCCNC(=N)N)NC(=O)[C@H](CCCNC(=N)N)NC(=O)[C@H](CCCCN)NC(=O)[C@H](CCCCN)NC(=O)[C@H](CCCNC(=N)N)NC(=O)CNC(=O)[C@H](Cc1ccc(O)cc1)NC(=O)CCCC[C@@H]1SC[C@@H]2NC(=O)N[C@@H]21)C(=O)N[C@@H](CCCCN)C(=O)N[C@H](C(=O)O)C(C)C` [biotinylated Tat-NPEG4-(HWLKV)2], the Tmax in data set [1] is 30 min.
Consider “NSVRV (DAT-C5 variant) [5-mer peptide of combinatorial library]”, for which the “fold affinity change” value in the data set with purified PICK1 is on record as “optimal 5-mer sequences”.
With `CC(C)C[C@H](CN)CC(=O)O` [Pregabalin, reference compound], in data set [2], the “maximum reversal of mechanical response threshold” value is listed as 84.7±10.5 % of baseline.
Regarding “TSIRV (DAT-C5 variant) [5-mer peptide of combinatorial library]”, in the data set with purified PICK1, the “fold affinity change” value is listed as “optimal 5-mer sequences”.
With “IIV [3-mer peptide of combinatorial library]”, the “fold affinity change” value in the data set with purified PICK1 was “optimal 3-mer sequences”.
